Experimental findings from article PMC11376382 are described below.

Assay [1] deals with 3×HA-FKBP-CUL1 (human | Cyanidioschyzon merolae).
The target of assay [2] is 3×HA-FKBP-SKP1 (human | Cyanidioschyzon merolae).

mVenus-FRB (domain or fragment) came in with a half-life (t1/2) of mVenus-FRB in the mV^RD-CUL1 strain after the addition of 500 nM rapamycin (the bridging compound), immunoblot time course in assay [1] of 30 min. In addition, in assay [2], the half-life (t1/2) of mVenus-FRB in the mV^RD-SKP1 strain after the addition of 500 nM rapamycin (the bridging compound), immunoblot time course is 46 min.
